The text below walks through data of publication PMC9514218 (Protein Science : A Publication of the Protein Society, 2022).

Ends that are not written are not given here.

Test [1] concerns the target T1, SURP1 (res. 48–110) of human SF3A1, K80Q mutant (human, UniProt Q15459 48-110, K80Q).
T1 sequence: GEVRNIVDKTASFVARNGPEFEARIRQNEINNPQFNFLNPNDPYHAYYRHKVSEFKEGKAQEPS
The test can be described thus: BLI. (Biolayer interferometry detects binding as a change in optical thickness at a sensor tip.)

Test [2] has as its target T2, SURP1 (res. 48–110) of human SF3A1, R62Q mutant (human, UniProt Q15459 48-110, R62Q).
T2 sequence: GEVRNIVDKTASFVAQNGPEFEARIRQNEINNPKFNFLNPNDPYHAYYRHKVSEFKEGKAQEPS
As to the kind of experiment: BLI.

The target in test [3] is T3, SURP1 (res. 48–110) of human SF3A1, wild type (human, UniProt Q15459 48-110).
T3 sequence: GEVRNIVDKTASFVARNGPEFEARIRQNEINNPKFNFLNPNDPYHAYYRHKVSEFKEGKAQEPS
As to the kind of experiment: BLI.

The target in test [4] is T4, SURP1 (res. 48–110) of human SF3A1, N63Q mutant (human, UniProt Q15459 48-110, N63Q).
T4 sequence: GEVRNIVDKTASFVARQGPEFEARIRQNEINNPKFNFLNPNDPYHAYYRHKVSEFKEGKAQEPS
The test can be described thus: BLI.

For test [5], the target named is T5, SURP1 (res. 48–110) of human SF3A1, K80D mutant (human, UniProt Q15459 48-110, K80D).
T5 sequence: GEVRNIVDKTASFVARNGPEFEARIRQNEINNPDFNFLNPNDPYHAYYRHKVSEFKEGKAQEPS
The test can be described thus: BLI.

Test [6] deals with T6, SURP1 (res. 48–110) of human SF3A1, N63E mutant (human, UniProt Q15459 48-110, N63E).
T6 sequence: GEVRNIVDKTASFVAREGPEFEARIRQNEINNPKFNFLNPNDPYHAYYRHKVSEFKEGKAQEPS
As to the kind of experiment: BLI.

Test [7] has as its target T7, SURP1 (res. 48–110) of human SF3A1, R62E mutant (human, UniProt Q15459 48-110, R62E).
T7 sequence: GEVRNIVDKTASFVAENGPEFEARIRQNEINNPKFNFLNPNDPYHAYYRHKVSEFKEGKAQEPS
The test can be described thus: BLI.

Test [8] deals with T3, SURP1 (res. 48–110) of human SF3A1, …. The test can be described thus: NMR solution structure.

B1: biotin-tagged SF1 S1BRp (res. 295–327) (peptide, UniProt Q15637 295-327, looked up)
peptide: QRPGDPQSAQDKARMDKEYLSLMAELGEAPVPA
modifications: also: biotin (position not given here)
With B1, the Kd was 64.2 µM in test [1]; 187 µM in test [2]; 15.2 µM in test [3]; 139 µM in test [4]; 132 µM in test [5]; 251 µM in test [6]. This molecule also displayed a Kd in test [7] of 393 µM.

B2: S1BR (res. 295–327) of SF1 as it stands in the chimera (domain or fragment, human, UniProt Q15637 295-327, looked up)
chain: QRPGDPQSAQDKARMDKEYLSLMAELGEAPVPA
In the case of B2, in test [8], the binding result is “binds”.

B3: biotin-tagged SF1 S1BRp (res. 295–335) (peptide, UniProt Q15637 295-335, looked up)
peptide: QRPGDPQSAQDKARMDKEYLSLMAELGEAPVPASVGSTSGP
modifications: also: biotin (position not given here)
Take B3: the Kd in test [3] is 17.3 µM.

As usually defined, the Kd is the free concentration of one partner at which half of the binding sites on the other are occupied at equilibrium, for simple one-to-one binding. Read a low Kd as tighter binding.
